According to patent US20250277030A1, “ANTI-NAPI2B ANTIBODIES AND METHODS OF USE” (Zymeworks BC Inc., priority 2022, published 2025):

How the values were obtained:
HCC-78 cells = assay: Internalization by flow cytometry in HCC-78 cells; assay type: cell-based, human; details: antibody 10 nM
Method: (§1) Briefly, antibodies were fluorescently labeled by coupling to a Fab fragment AF488 conjugate targeting anti-Human IgG Fe (Jackson Immuno Research Labs, West Grove, PA; Cat. No. 109-547-008) at a 1:1 molar ratio in PBS pH 7.4 (Thermo Fisher Scientific, Waltham, MA; Cat. No. 10010-023), for 24 hours at 4° C. Cells were seeded at 50,000 cells/well in RPMI 1640, ATCC modification (Thermo Fisher Scientific, Waltham, MA) supplemented with 10% fetal bovine serum (Thermo Fisher Scientific, Waltham, MA) in 48-well plates and incubated overnight under standard culturing conditions (37° C./5% CO2) to allow attachment. […] Following incubation, cells were dissociated, washed, and surface AF488 fluorescence was quenched using an anti-AF488 antibody (Life Technologies, Carlsbad, CA; Cat. No. A-11094) at 100 nM for 30 minutes at 4° C. […] (internalized fluorescence) was detected by flow cytometry on a BD LSRFortessa™ Cell Analyzer (BD Biosciences, Franklin Lake, NJ) with 1,000 minimum events collected per well. The AF488/FITC-A GeoMean (fluorescence signal geometric mean, proportional to anti-Human Fab AF488 labelling) was calculated for the live single cell population using FlowJo™ Version 10.8.1 (BD Biosciences, Franklin Lake, NJ) and plotted using GraphPad Prism Version 9 (GraphPad Software, San Diego, CA).

NCI-H441 cells = assay: Internalization by flow cytometry in NCI-H441 cells; assay type: cell-based, human; details: antibody 10 nM
Method: as §1

[1] = Thermal stability by differential scanning calorimetry (DSC); assay type: physicochemical; details: 0.4 mg/mL in PBS, scan 20° C. to 100° C. at 60° C./hr
Method: The thermal stability of the humanized antibody variants was assessed by differential scanning calorimetry (DSC) as described below.
400 μL of purified samples primarily at concentrations of 0.4 mg/mL in PBS were used for DSC analysis with a VP-Capillary DSC (Malvern Panalytical Inc., Westborough, MA). At the start of each DSC run, 5 buffer blank injections were performed to stabilize the baseline, and a buffer injection was placed before each sample injection for referencing. Each sample was scanned from 20° C. to 100° C. at a 60° C./hr rate, with low feedback, 8 sec filter, 3 min pre-scan thermostat, and 70 psi nitrogen pressure. The resulting thermograms were referenced and analyzed using Origin 7 software (OriginLab Corporation, Northampton, MA) to determine melting temperature (Tm) as an indicator of thermal stability.

ssDNA = assay: NS-ELISA non-specific binding, ssDNA; details: mAb at 100 nM
Method: (§2) The isoelectric point was measured by capillary isoelectric focusing (cIEF), the propensity for self-aggregation was measured by Affinity-capture self-interaction nanoparticle spectroscopy (AC-SINS) and non-specific binding was measured by NS-ELISA, as described below.
(§3) NS-ELISA was used to measure the propensity of the antibodies to bind to a range of biomolecules to emulate the undesirable non-specific interactions to biological matrices in vivo as described below.
(§4) NS-ELISA was carried out in Corning®96-well EIA/RIA Easy Wash™ Clear Flat Bottom Polystyrene High Bind Microplate coated overnight at 4° C. with 50 μL of Heparin (Sigma, H3149) diluted with 50 mM sodium carbonate pH 9.6 to a final concentration of 250 μg/mL. The plate was incubated for 2 days at room temperature, wells that were coated with heparin were not covered to allow air dry. […] Reactions were stopped after approximately 10 minutes by adding 100 μL of 1 M HCl to each well, and absorbance was read at 450 nm. Binding scores were calculated as the ratio of the ELISA signal of the antibody (antibody-treated) to the signal of a well containing buffer instead of the primary antibody (untreated). The cutoffs considered for each binding molecule (ssDNA, KLH, insulin, dsDNA and heparin) were internally calculated, based on the average of Zymeworks Inc. produced antibodies and antibodies benchmarks published in the literature.

Insulin = molecular target: T1, Insulin (Homo sapiens, UniProt P01308); assay: NS-ELISA non-specific binding, insulin; details: mAb at 100 nM
T1 construct: purchased Sigma-Aldrich 19278
T1 sequence (P01308 25-54 limits assumed): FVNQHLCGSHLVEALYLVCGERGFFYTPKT
T1 sequence (P01308 90-110 limits assumed): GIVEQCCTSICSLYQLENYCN
Method: as §2, §3, §4

- NS-ELISA binding score (ratio of signal between antibody-treated and untreated), ssDNA (ssDNA): 1.06
- NS-ELISA binding score (ratio of signal between antibody-treated and untreated), Insulin (Insulin): 1.05
B1: v29456: humanized anti-NaPi2b IgG1/kappa antibody H1L2; VH SEQ ID NO:24, VL SEQ ID NO:29 (antibody, V domains shown)
VH: QVQLVQSGAEVKKPGASVKVSCKASGFTFTSYNVHWVRQAPGQGLEWMGAISPGNGDLSYAQKFQGRVTMTRDTSTSTVYMELSSLRSEDTAVYYCARGRTGMGAVDYWGQGTLVTVSS
VL: DVQMTQSPSSLSASVGDRVTITCRASQDVYSYLNWYQQKPGKAVKLLIYYTSRLQSGVPSRFSGSGSGTDYTLTISSLQPEDFATYYCQQYNIFPWTFGQGTKLEIK
modifications: v29452, v29456, v29460 VH (H1); v29453, v29454, v29455, v29456 VL (L2)
- Internalized Fluorescence Fold-Over Palivizumab (HCC-78 cells; HCC-78, 5 hrs): 25.3 fold
- Internalized Fluorescence Fold-Over Palivizumab (HCC-78 cells; HCC-78, 24 hrs): 59.9 fold
- Internalized Fluorescence Fold-Over Palivizumab (NCI-H441 cells; NCI-H441, 5 hrs): 2.4 fold
- Internalized Fluorescence Fold-Over Palivizumab (NCI-H441 cells; NCI-H441, 24 hrs): 4.0 fold
- Fab Tm [1]: 77.9 °C
